The target in assay [1] is HER2 on the surface of N87 gastric cancer cells (human) (UniProt P04626). The experiment in a line: cell-based or functional assay.
Assay [2] has the same target. Put plainly: flow cytometry on N87 cells, 0.5 nM scFv detected with AL1-RFP.
Assay [3] has as its target T1, HER2 on the surface of N87 gastric cancer cells (human, UniProt P04626 23-1255). Put plainly: cell-based or functional assay.
The target in assay [4] is T1, HER2 on the surface of N87 gastric …. The experiment in a line: flow cytometry on N87 cells, 0.5 nM scFv detected with AL1-RFP.

Here are results for three molecules from patent US20190085323A1 (published 2019).

B1: 29TYL#10 source scFv (scFv, V domains shown, not shown: large carriers)
VH: EVQLVESGGGLVQPGGSLRLSCKASGYTFTDGSMHWVRQAPGKGLEWVAYINPYFGDTYYADSVKGRFTISADTSKNTAYLQMNSLRAEDTAVYYCARGWIDYWGQGTLVTVSS
VL: DIQMTQSPSSLSASVGDRVTITCKSNQNLLLSNGRTFLYWYQQKPGKAPKLLIYGTSYLYSGVPSRFSGSGSGTDFTLTISSLQPEDFATYYCFQANHLPWTFGQGTKVEIKR
modifications: VL-linker-VH scFv; linker and E-tag not given
For B1, in assay [1], the % cell viability (AL1) came to 79.9% and the % cell viability (AL2) stood at 64.8%. This molecule displayed an MFI in assay [2] of 444.

B2: 2835-28 source scFv (scFv, V domains shown, not shown: large carriers)
VH: B1 VH
VL: B1 VL
modifications: VL-linker-VH scFv; linker and E-tag not given
In the case of B2, in assay [1], the % cell viability (AL1) is 52.8% and the % cell viability (AL2) is 29.9%. In assay [2], this molecule showed an MFI of 495.

B3: 35CPT-9 source scFv (scFv)
chain: DIQMTQSPSSLSASVGGRVTITCKSNQNLLDSYGRTYLYWYQQKPGKAPKLLISGTSGLYSGVPSRFSGSGSGTDFTLTISSLQPEDFATYYCFQGYDYPFTFGQGTKVEIKREVQLVESGGGLVQPGGSLRLSCKASGYTFGDYGMHWVRQAPGKGLEWVAHIAPNDGITHYADSVKGRFTISADTSKNTAYLQMNSLRAEDTAVYYCARGYGWYDHVMDYWGQGTLVTVSSASAAA
In the case of B3, in assay [3], the “% cell viability (AL1)” value stood at 69.8% and the “% cell viability (AL2)” value was found to be 17.9%. This molecule had an MFI in assay [4] of 287.
